These results are taken from publication PMC13544220, “Glycemic and bodyweight effects of GIPR coding variation reflect differences in surface expression and intrinsic functional impairment” (Science Advances, 2026).

Residue numbers refer to the chain shown, from its start.

Data set [1] relates to wild-type and variant SNAP-GIPR. In words: Surface SNAP-GIPR expression (SNAP-tag labelling) in AD293 cells. The data set is classed as cell-based, human. Particulars: level of surface expression, based on in vitro functional data in AD293 cells; summary classification. The method, then: Twenty-four hours before the experiment, AD293 or INS-1 cells were reverse transfected with GIPR variant or wild-type plasmids using Lipofectamine 2000 in 96-well, clear-bottom, black microplates precoated with poly-D-lysine. All variants were tested in parallel on each occasion to control for transfection efficiency differences between experiments. Cells were then labeled using the cell-impermeant probe SNAP-Surface Alexa Fluor 647 (500 nM, New England Biolabs, USA) for 10 min at room temperature to label only surface GIPR. […] Several fields of view (FOVs) were acquired within each well using a 20X, 0.75–numerical aperture (NA) air objective. Surface GIPR fluorescence was quantified after flat-field correction using BaSiC ([72]) and segmenting using Phantast ([73]), which generates a mask based on the phase contrast images to demarcate cell versus noncell. Wide-field imaging of the surface-specific labeling achieved by SNAP-Surface probes means that surface expression can be established from whole-cell fluorescence, after subtracting nonspecific fluorescence from a separate well containing nontransfected cells processed in parallel from the same experiment. Data were normalized by dividing by the average specific signal across each experiment, or by the wild-type value, as indicated in the figure legends.

Data set [2] shares this test system. As to the kind of experiment: Single-concentration GIP cAMP response by HTRF in AD293 cells. The data set is classed as cell-based, human. Particulars: cAMP responses to 100 pM GIP in AD293 cells; summary classification (decrease/neutral/increase). The procedure: All variants were tested in parallel on each occasion to control for transfection efficiency differences between experiments.
For orientation: Time-resolved FRET reads energy transfer from a long-lived donor to a nearby acceptor.

B1: p.Arg131Ser (protein, UniProt P48546 22-466, looked up, variant R131S)
Gastric inhibitory …: RAETGSKGQTAGELYQRWERYRRECQETLAAAEPPSGLACNGSFDMYVCWDYAAPNATARASCPWYLPWHHHVAAGFVLRQCGSDGQWGLWRDHTQCENPEKNEAFLDQSLILERLQVMYTVGYSLSLATLLLALLILSLFRRLHCTRNYIHINLFTSFMLRAAAILSRDRLLPRPGPYLGDQALALWNQALAACRTAQIVTQYCVGANYTWLLVEGVYLHSLLVLVGGSEEGHFRYYLLLGWGAPALFVIPWVIVRYLYENTQCWERNEVKAIWWIIRTPILMTILINFLIFIRILGILLSKLRTRQMRCRDYRLRLARSTLTLVPLLGVHEVVFAPVTEEQARGALRFAKLGFEIFLSSFQGFLVSVLYCFINKEVQSEIRRGWHHCRLRRSLGEEQRQLPERAFRALPSGSGPGEVPTSRGLSSGTLPGPGNEASRELESYC
As for B1, in data set [1], the “Surface expression” value is reported as “neutral”. In addition, in data set [2], the cAMP response result is on record as “decrease”.

B2: p.Thr116Arg (protein, UniProt P48546 22-466, looked up, variant T116R)
Gastric inhibitory …: B1 Gastric inhibitory … with T95R, S110R
As to B2, the “Surface expression” value in data set [1] is reported as “neutral”. The cAMP response entry in data set [2] is “decrease”.

B3: p.Arg136Trp (protein, UniProt P48546 22-466, looked up, variant R136W)
Gastric inhibitory …: B1 Gastric inhibitory … with S110R, R115W
Turning to B3, the “Surface expression” value in data set [1] is “neutral”. Besides, the cAMP response entry in data set [2] is listed as “decrease”.

B4: p.Ile378Met (protein, UniProt P48546 22-466, looked up, variant I378M)
Gastric inhibitory …: B1 Gastric inhibitory … with S110R, I357M
For B4, the “Surface expression” value in data set [1] is recorded as “increase”. Also, in data set [2], the cAMP response result is given as “neutral”.

B5: p.Arg183Gln (protein, UniProt P48546 22-466, looked up, variant R183Q)
Gastric inhibitory …: B1 Gastric inhibitory … with S110R, R162Q
Turning to B5, the “Surface expression” value in data set [1] is listed as “decrease”. Also, the cAMP response result in data set [2] was “decrease”.

B6: p.Arg300Trp (protein, UniProt P48546 22-466, looked up, variant R300W)
Gastric inhibitory …: B1 Gastric inhibitory … with S110R, R279W
As to B6, the “Surface expression” value in data set [1] was “decrease”. In addition, the cAMP response entry in data set [2] is “decrease”.

B7: p.Leu262His (protein, UniProt P48546 22-466, looked up, variant L262H)
Gastric inhibitory …: B1 Gastric inhibitory … with S110R, L241H
Regarding B7, the “Surface expression” value in data set [1] was “decrease”. Further, the cAMP response result in data set [2] was “decrease”.

B8: p.Arg190Gln (protein, UniProt P48546 22-466, looked up, variant R190Q)
Gastric inhibitory …: B1 Gastric inhibitory … with S110R, R169Q
On to B8, for which the “Surface expression” value in data set [1] is given as “decrease”. Also, the cAMP response entry in data set [2] is reported as “decrease”.

B9: p.Asp66Gly (protein, UniProt P48546 22-466, looked up, variant D66G)
Gastric inhibitory …: B1 Gastric inhibitory … with D45G, S110R
Turning to B9, in data set [1], the “Surface expression” value was “decrease”. In addition, in data set [2], the cAMP response entry is on record as “decrease”.

B10: p.Arg217Leu (protein, UniProt P48546 22-466, looked up, variant R217L)
Gastric inhibitory …: B1 Gastric inhibitory … with S110R, R196L
On to B10, for which, in data set [1], the “Surface expression” value is reported as “decrease”. Moreover, in data set [2], the cAMP response result is reported as “decrease”.

B11: p.Arg101His (protein, UniProt P48546 22-466, looked up, variant R101H)
Gastric inhibitory …: B1 Gastric inhibitory … with R80H, S110R
As to B11, the “Surface expression” value in data set [1] was “decrease”. In data set [2], the cAMP response entry is given as “decrease”.

B12: p.Ser447Thr (protein, UniProt P48546 22-466, looked up, variant S447T)
Gastric inhibitory …: B1 Gastric inhibitory … with S110R, S426T
With B12, the “Surface expression” value in data set [1] is given as “neutral”. Also, in data set [2], the cAMP response entry is listed as “neutral”.

B13: p.Glu354Gln (protein, UniProt P48546 22-466, looked up, variant E354Q)
Gastric inhibitory …: B1 Gastric inhibitory … with S110R, E333Q
For B13, the “Surface expression” value in data set [1] is recorded as “decrease”. For the same molecule, in data set [2], the cAMP response entry is listed as “increase”.

B14: p.Arg404His (protein, UniProt P48546 22-466, looked up, variant R404H)
Gastric inhibitory …: B1 Gastric inhibitory … with S110R, R383H
B14: the “Surface expression” value in data set [1] was “decrease”. Moreover, in data set [2], the cAMP response entry was “decrease”.

B15: p.Ala207Val (protein, UniProt P48546 22-466, looked up, variant A207V)
Gastric inhibitory …: B1 Gastric inhibitory … with S110R, A186V
Take B15: the “Surface expression” value in data set [1] is given as “neutral”. Besides, the cAMP response result in data set [2] was “neutral”.

B16: p.Ala268Val (protein, UniProt P48546 22-466, looked up, variant A268V)
Gastric inhibitory …: B1 Gastric inhibitory … with S110R, A247V
For the molecule B16, the “Surface expression” value in data set [1] was “neutral”. Further, the cAMP response entry in data set [2] is on record as “increase”.

B17: p.Arg336Pro (protein, UniProt P48546 22-466, looked up, variant R336P)
Gastric inhibitory …: B1 Gastric inhibitory … with S110R, R315P
Take B17: the “Surface expression” value in data set [1] is on record as “neutral”. Further, in data set [2], the cAMP response entry is given as “neutral”.

B18: p.Glu463Gln (protein, UniProt P48546 22-466, looked up, variant E463Q)
Gastric inhibitory …: B1 Gastric inhibitory … with S110R, E442Q
Consider B18, for which the “Surface expression” value in data set [1] was “neutral”. For the same molecule, the cAMP response entry in data set [2] is reported as “neutral”.

B19: p.Ile403Val (protein, UniProt P48546 22-466, looked up, variant I403V)
Gastric inhibitory …: B1 Gastric inhibitory … with S110R, I382V
For the molecule B19, in data set [1], the “Surface expression” value is “neutral”. The cAMP response entry in data set [2] was “neutral”.

B20: p.Leu262Val (protein, UniProt P48546 22-466, looked up, variant L262V)
Gastric inhibitory …: B1 Gastric inhibitory … with S110R, L241V
As to B20, the “Surface expression” value in data set [1] is reported as “neutral”. For the same molecule, the cAMP response entry in data set [2] is listed as “neutral”.

B21: p.Arg341Pro (protein, UniProt P48546 22-466, looked up, variant R341P)
Gastric inhibitory …: B1 Gastric inhibitory … with S110R, R320P
As to B21, the “Surface expression” value in data set [1] is “decrease”. In data set [2], the cAMP response entry is reported as “decrease”.

B22: p.Gly438Ser (protein, UniProt P48546 22-466, looked up, variant G438S)
Gastric inhibitory …: B1 Gastric inhibitory … with S110R, G417S
For B22, the “Surface expression” value in data set [1] was “neutral”. Moreover, in data set [2], the cAMP response entry is “neutral”.

B23: p.Glu252Asp (protein, UniProt P48546 22-466, looked up, variant E252D)
Gastric inhibitory …: B1 Gastric inhibitory … with S110R, E231D
For the molecule B23, the “Surface expression” value in data set [1] is “neutral”. In addition, the cAMP response result in data set [2] is “increase”.

B24: p.Ser64Ala (protein, UniProt P48546 22-466, looked up, variant S64A)
Gastric inhibitory …: B1 Gastric inhibitory … with S43A, S110R
Consider B24, for which the “Surface expression” value in data set [1] is on record as “decrease”. Moreover, the cAMP response result in data set [2] is given as “decrease”.

B25: p.Glu288Gly (protein, UniProt P48546 22-466, looked up, variant E288G)
Gastric inhibitory …: B1 Gastric inhibitory … with S110R, E267G
As to B25, the “Surface expression” value in data set [1] was “decrease”. In addition, the cAMP response result in data set [2] is recorded as “decrease”.

B26: p.Ser415Ile (protein, UniProt P48546 22-466, looked up, variant S415I)
Gastric inhibitory …: B1 Gastric inhibitory … with S110R, S394I
For B26, the “Surface expression” value in data set [1] is “neutral”. Further, the cAMP response entry in data set [2] is on record as “neutral”.

B27: p.Leu100Phe (protein, UniProt P48546 22-466, looked up, variant L100F)
Gastric inhibitory …: B1 Gastric inhibitory … with L79F, S110R
B27: the “Surface expression” value in data set [1] was “neutral”. The cAMP response entry in data set [2] is listed as “neutral”.
